This series addresses VEGF165 (vascular endothelial growth factor) (UniProt P15692-4 27-191). Briefly: impedance spectroscopy on aptamer-grafted interdigitated sensor; 5 and 50 pM VEGF in PBS; 10 kHz impedance 50.32 (water), 28.90 (5 pM), 12.81 kOhm (50 pM); proteins diluted in PBS (5 and 50 pM), about 25 °C, impedance 2.5-100 kHz; aptamer grafted at 50 nM, pH 8, 24 h; water pH 7 as control. The settings on record: protein: commercial; chain copies: 2.

Chain of VEGF165 (vascular endothelial growth factor) (P15692 other isoform, or with tags, fused parts or gaps): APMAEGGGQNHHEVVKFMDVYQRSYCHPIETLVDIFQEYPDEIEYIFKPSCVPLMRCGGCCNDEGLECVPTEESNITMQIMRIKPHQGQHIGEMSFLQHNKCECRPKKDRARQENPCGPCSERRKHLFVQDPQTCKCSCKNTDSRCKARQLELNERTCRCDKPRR

B1: VEGF165 DNA aptamer (ssDNA)
DNA: ATACCAGTCTATTCAATTGGGCCCGTCCGTATGGTGGGTGTGCTGGCCAGATAGTATGTGCAATCA
modifications: grafted on NHS-functionalized mercapto monolayer; attachment group on the DNA not stated
Consider B1, for which the binding result is listed as “binds”.

The record behind these values is publication PMC10381268, “VEGF Detection via Impedance Spectroscopy on Surface Functionalized Interdigitated Biosensor”.
